Data from the supplement of paper PMC10567573.

B1: NECAB1 (parent)
chain: FSPNSPQFNVSGPGLLEEDNQWMT
B2: NET1 (parent)
chain: RVRPLARVTSLANLISPVRNGAVR

Variants of: B1
Assay: protein stability index of a GFP-peptide fusion (GPS, HEK-293T) (PSI 1-6); higher = more stable
Conditions: c terminus: a fixed tail appended
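Further: lentivirally expressed fusions sorted by FACS into six bins by GFP to DsRed ratio, PSI derived from sequencing read proportions per bin multiplied by bin number.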

Protein stability index of substitutions, site by site:
S5: Y 1.94 | G 2.72 | H 3.16 | E 3.82 | V 2.75 | C 3 | D 4.04 | R 2.78 | Q 3.7 | W 2.27 | N 3.03 | F 2 | P 3.39 | T 2.98 | L 2.93 | A 2.72 | K 2.82 | I 2.75 | M 3.66
L15: Q 3.06 | N 3.27 | R 2.51 | G 2.91 | W 2.68 | S 3.3 | I 2.98 | A 3.26 | T 3.25 | M 3.22 | V 3.23 | Y 3.05 | P 2.98 | D 3.7 | K 2.97 | H 3.19 | F 2.91 | E 3.46 | C 3.04
S2: A 1.79 | I 1.76 | P 2.47 | K 3.63 | F 3.06 | M 3.39 | N 3.28 | Q 2.95 | R 3.65 | E 4.58 | Y 3.49 | H 2.17 | W 2.58 | T 2.23 | D 4.21 | V 2.66 | L 3.37 | G 2.08 | C 2.63
F8: K 3.78 | T 3.5 | M 3.65 | R 3.65 | I 3.26 | D 4.15 | H 3.77 | A 4.17 | E 4.44 | L 3.04 | P 3.47 | Q 3.79 | C 3.42 | W 1.43 | G 3.83 | N 4.29 | V 3.61 | Y 3.43 | S 4
G12: N 2.77 | R 2.7 | M 3.18 | A 2.85 | I 2.42 | Y 2.14 | H 2.62 | L 2.47 | F 2.21 | K 2.85 | E 3.12 | T 3.22 | D 3.13 | Q 3.04 | V 2.86 | W 1.74 | C 2.04 | P 2.86 | S 3.13
N9: K 2.84 | G 3.23 | Y 3.54 | W 2.41 | P 3.06 | M 2.42 | E 3.77 | L 2.12 | S 2.84 | V 2.09 | R 2.32 | T 2.62 | C 2.13 | I 2.05 | Q 2.67 | D 3.67 | H 2.22 | A 2.35
P13: T 3.32 | E 3.58 | A 3.15 | Y 2.75 | R 2.79 | W 1.7 | V 2.75 | N 3.5 | L 2.39 | C 2.49 | S 3.02 | D 3.46 | H 2.62 | F 2.29 | M 2.65 | I 3.27 | Q 3.12 | K 2.71 | G 2.89
S11: Q 3.09 | R 2.62 | C 2.54 | T 2.79 | P 3.19 | E 3.4 | K 2.44 | G 2.76 | I 2.9 | Y 1.95 | V 2.51 | F 2 | H 2.5 | D 3.73 | N 3.31 | A 3.02 | L 2.91 | W 3.29 | M 2.16
V10: T 2.89 | C 2.42 | M 3.33 | I 3.09 | K 2.94 | G 2.92 | S 3.19 | F 2.28 | W 1.87 | H 3.63 | R 3.38 | E 4.16 | D 4.09 | A 3.5 | P 3.16 | Y 2.89 | L 2.74 | N 3.68 | Q 3.32
G14: S 3.04 | I 2.29 | N 2.89 | C 3.32 | E 3.58 | P 3.17 | Q 2.74 | V 2.89 | A 3.44 | Y 2.22 | D 3.73 | H 2.47 | R 2.63 | K 2.3 | F 2.35 | T 2.52 | L 2.62 | M 2.35 | W 1.96
L16: A 3.29 | E 4 | D 3.94 | C 3.03
Q7: R 2.07 | Y 1.72 | V 2.22 | G 2.74 | K 2.27 | M 2.02 | C 2 | H 2.94 | T 3.09 | F 2.59 | I 2.11 | A 1.92 | S 2.66 | P 2.9 | L 1.45 | E 3.88 | D 4.25 | W 2.64 | N 2.89
F1: D 4.53 | M 4.7 | Y 3.25 | R 4.33 | P 4.51 | C 3.13 | I 4.33 | T 4.11 | H 4.23 | V 4.34 | L 4.55 | E 4.79 | W 3.85 | S 4.75 | N 4.63 | K 4.43 | A 4.01 | G 4.4 | Q 4.7
N4: M 2.45 | T 3.2 | K 2.98 | Q 2.8 | I 2.67 | H 2.53 | W 2.25 | E 3.59 | S 2.89 | F 2.4 | R 2.82 | V 3.03 | Y 2.33 | P 3.53 | A 3.25 | L 2.64 | D 3.79 | C 2.26 | G 2.53
P6: I 2.34 | E 3.88 | N 2.56 | G 2.34 | H 2.14 | Q 2.48 | M 2.03 | D 2.82 | V 2.56 | F 2.28 | R 2.05 | Y 1.92 | L 2.51 | W 4.26 | C 2.26 | A 2.95 | S 2.62 | T 2.86 | K 2.5
P3: W 2.04 | Q 3.26 | T 3.05 | R 2.88 | G 2.2 | E 3.71 | Y 2.62 | I 3.33 | S 2.68 | F 2.59 | A 3.26 | L 2.87 | N 2.76 | M 3.22 | C 2.33 | K 3.11 | H 3.17 | D 2.24 | V 2.88

Variants of: B2
Assay: as above
Conditions: c terminus: a fixed tail appended

Protein stability index of substitutions, site by site:
V23: D 3.3 | E 2.79 | L 2.66 | T 3.13 | I 2.7 | C 2.72 | A 3.08 | P 3.86 | F 2.26 | H 3.43 | W 2.4 | M 3.22 | G 3.79 | Y 2.9 | R 3.89 | K 3.99 | Q 3.73 | S 3.4 | N 3.68
A22: Y 2.54 | P 3.49 | W 1.86 | T 3.46 | R 3.36 | S 3.37 | V 2.75 | Q 3.69
R24: V 2.63 | K 3.47 | E 3.8 | L 2.2 | C 3.21 | N 2.91 | W 2.44 | T 2.39 | M 2.19 | A 2.98 | F 2.44 | Y 1.88 | I 2.54 | D 3.37 | S 2.74 | G 2.93 | Q 3.37 | H 2.38 | P 2.93
